Values joined by “and” are separate entries in the source; they are usually repeats but may differ in a detail not shown here. Identical values can stand only once.
What was measured:
NY-ESO-1 11-30 peptide [1] = target: T1, NY-ESO-1 11-30 peptide (human); test: saturation ELISA on coated NY-ESO-1 11-30 peptide
T1 construct: also called peptide spanning amino acids 11 to 30 of NY-ESO-1
T1 peptide: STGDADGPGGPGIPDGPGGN

NY-ESO-1 11-30 peptide [2] = target: T1, NY-ESO-1 11-30 peptide; test: competition ELISA: soluble NY-ESO-1 11-30 peptide against plate bound peptide
Experimental: The avidity of Manhattan was determined by competition ELISA using increasing concentrations of soluble NY-ESO-1₁₁₋₃₀ peptide to compete for the plate bound peptide. As depicted in FIG. 3C, the antigen-binding equilibrium dissociation constant (KD) of the interaction of Manhattan with its cognate peptide was in the lower nanomolar range.

[3] = target: T2, full length recombinant NY-ESO-1 protein (human, UniProt P78358 1-180); test: ELISA on coated recombinant NY-ESO-1, supernatant of transfected 293 HEK cells
T2 construct: mature; The form was set to 'mature' to stand for full length

[4] = target: T3, NY-ESO-1 as expressed in NY-ESO-1-positive mamma carcinoma tissue sections and in the cell line SK-MEL-37 (human, UniProt P78358 1-180); test: immunohistochemistry on NY-ESO-1-positive tissue sections
T3 construct: whole, on cells; The antigen is intracellular; It was detected in fixed sections or permeabilised cells, not on the cell surface; also called NY-ESO-1-positive tissue; NY-ESO-1-positive cell line SK-MEL-37
Experimental: Immunohistochemistry was performed on formalin-fixed, paraffin-embedded tissue. Heat-based antigen retrieval was applied to all slides. Non-specific fluorescence was blocked using polyclonal rabbit anti-human IgG (Dako, Baar, Switzerland) for 30 min at room temperature followed by a second block in 1% of low fat milk (Rapilait, Migros, Switzerland) for 10 min. Primary antibody or B cell conditioned medium was incubated overnight at 4° C. […] As positive control for the presence of NY-ESO-1 antigen a mouse anti-NY-ESO-1 monoclonal antibody (Zymed, South San Francisco, USA) was used.

[5] = target: T4, NY-ESO-1 peptide spanning amino acids 21-40 (human, UniProt P78358 21-40); test: epitope mapping ELISA on coated overlapping peptides
T4 construct: range 21-40; also called adjacent peptide 21-40
T4 peptide (looked up): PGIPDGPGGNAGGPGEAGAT
Experimental: (§1) 20mer peptides spanning the entire NY-ESO-1 protein with 10 aa overlaps shared by each adjacent peptides (Peptides&Elephants, Nuthetal, Germany) were used to coat Maxisorp ELISA plates (Nunc, Rochester, N.Y.). Human recombinant antibody Manhattan or patient serum (diluted 1:500 in PBS) was detected using horseradish peroxidase-conjugated Goat anti-human IgG+IgM (Jackson ImmunoResearch).
(§2) To identify the epitope recognized by Manhattan on NY-ESO-1 ELISA was performed using overlapping peptides spanning the complete NY-ESO-1 protein. […] This epitope, among others was also recognized by antibodies contained in serum of patient C1 (FIG. 3B).

[6] = target: T5, NY-ESO-1 peptide spanning amino acids 1-20 (human, UniProt P78358 1-20); test: as above
T5 construct: range 1-20; also called adjacent peptide 1-20
T5 peptide (looked up): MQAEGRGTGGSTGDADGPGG
Experimental: as §1, §2

EC50 (NY-ESO-1 11-30 peptide [1]): 1 nM and 0.15 µg/mL | Kd (NY-ESO-1 11-30 peptide [2]): 100 pM | binding result [3]: binds | binding result [4]: binds | binding result [5]: no binding | binding result [6]: no binding
B1: human monoclonal antibody Manhattan (recombinant human antibody 12D7 clone No. 4) (antibody, human IgG1, V domains shown)
VH: QVQLVQSGGGVVRPGGSLRLSCAASGFSFIDYGMSWVRQVPGKGLEWVAGMNWSGDKKGHAESVKGRFIISRDNAKNTLYLEMSSLRVEDTALYFCARGEYSNRFDPRGRGTLVTVSS
VL: DIVMTQTPLSLPVTLGQPASLSCRSSQSLVFTDGNTYLNWFQQRPGQSPRRLIYKVSSRDPGVPDRFSGTGSGTDFTLEISRVEAEDIGVYYCMQGTHWPPIFGQGTKVEIK
notes: They were cloned into vectors with the constant regions of human IgG1 heavy chain and human kappa light chain and expressed in 293 HEK cells; also called 12D7 clone number 4; 12D7.4

— US20110123447A1 (UNIVERSITY OF ZURICH, published 2011)
